# In US20240294573A1, “CONSTRAINED PEPTIDES” (TearSolutions, Inc., priority 2019, published 2024):
# Bridge positions count the residues as written; N and C are the ends. Square brackets hold non-standard residues; d marks the D form. Ends that are not written are not given here. 2‑(7-octenyl)alanine = olefinic alpha-amino acid with 7-octenyl side chain, staple residue; 2‑(4-pentenyl)alanine = 2-(4-pentenyl)alanine
# Assays:
# Assay type in all cases: physicochemical
# [1] = Circular dichroism of alkene constrained (stapled) Lacripep acetate salts in citrate buffer (Example 7); settings: 10 mM sodium citrate buffer pH 6.5, 0.2 mg/mL, 35° C.
# Protocol: (§1) Alkene Constrained Analogs of Lacripep™ (SEQ ID NO:1) were synthesized with N-terminal acetylation and C-terminal amidation as an acetate salt. The compounds were reconstituted in 10 mM sodium citrate buffer, pH 6.5 for circular dichroism, with or without 10 mM n-DodecylPhosphoCholine (DPC). The resulting citric acid buffered solutions were tested for circular dichroism.
# (§2) CD spectra were obtained using the Jasco 810 CD/ORD with Fluorescence Monochrometer in a 1 mm quartz cell from Starna Cells, Inc. Spectra were obtained at 35° C. from 250 nm to 190 nm in continuous scanning mode (scanning speed, 100 nm/min; data pitch, 0.1 nm; bandwidth, 1 nm; response time, 4 s) with a nitrogen flow rate of 100 mL/min. An average of 3 spectra were obtained for each sample (N=3).
# [2] = Circular dichroism of cysteine disulfide constrained Lacripep acetate salts in citrate buffer (Example 8); settings: 10 mM sodium citrate buffer pH 6.5, 0.2 mg/mL, 35° C.; for helicity (CD spectra): absence of 10 mM DPC; for negative CD signal between 200 nm and 230 nm: presence of DPC (10 mM)
# Protocol: as §1, with “Cysteine Disulfide” for “Alkene”, “DPC.” for “n-DodecylPhosphoCholine (DPC).”
# as §2
# [3] = Circular dichroism of Lacripep oleate salt vs acetate salt in citrate buffer (Example 3); settings: CD, 0.2 mg/mL, 10 mM sodium citrate buffer pH 6.5, 35° C.
# Protocol: Lacripep™ (SEQ ID NO:1) was synthesized either without or with N-terminal acetylation and C-terminal amidation as an acetate salt. The compounds were reconstituted in 10 mM sodium citrate buffer, pH 6.5 for circular dichroism. Lacripep™ synthesized either without or with N-terminal acetylation and C-terminal amidation as an acetate salt was converted to an oleate salt by dissolving 1 equivalent of the Lacripep™ acetate salt and 4 equivalents of oleic acid (one oleic acid per lysine residue in Lacripep™) in a mixture of water buffered with citric acid to pH 6.5. The resulting solutions were then flash frozen and lyophilized under vacuum to remove the more volatile acetic acid. The lyophilized powder is suspended in water and the pH is adjusted to between 6.2 to 6.8 with citric acid and sodium citrate and the osmolality to between 250 to 350 mOsm/kg. […]
# as §2, with “An average of 3 spectra were obtained for each sample (N=3).” left out
# [4] = Circular dichroism of Lacripep acetate salt vs dodecylphosphocholine form in phosphate buffer (Example 2); settings: CD, 0.2 mg/ml; for alpha helicity: 10 mM phosphate, 137 mM NaCl, 2.7 mM KCl buffer pH 7.4, 35° C., dpC forms with 10 mM dodecylphosphocholine; for irregular: phosphate buffer pH 7.4, 35° C., 10 mM dodecylphosphocholine
# Protocol: Lacripep™ (SEQ ID NO:1) was synthesized either without (unmodified, KQFIENGSEFAQKLLKKFS) or with (modified, Ac-KQFIENGSEFAQKLLKKFS-NH2)N-terminal acetylation and C-terminal amidation as an acetate salt. The compounds (0.2 mg/ml) were reconstituted in 10 mM phosphate, 137 mM NaCl, 2.7 mM KCl buffer, pH 7.4 with 10 mM dodecylphosphocholine for circular dichroism. CD spectra were obtained using the Jasco 810 CD/ORD with Fluorescence Monochrometer in a 1 mm quartz cell from Starna Cells, Inc. Spectra were obtained at 35° C. from 250 nm to 190 nm in continuous scanning mode (scanning speed, 100 nm/min; data pitch, 0.1 nm; bandwidth, 1 nm; response time, 4 s) with a nitrogen flow rate of 100 mL/min. An average of 3 spectra were obtained for each sample (N=3). Analysis of the dichroism spectra can use methods known in the art, including, DichroWeb: On-line analysis for protein Circular Dichroism spectra; Whitmore, L. and Wallace, B. A. (2008) Biopolymers 89: 392-400; Whitmore, L. and Wallace, B. A. (2004) Nucleic Acids Research 32: W668-673, each of which is incorporated by reference herein in its entirety.
substance,measurement,setting,value
Ac-KQ [2-(7-octenyl) alanine]-IENGSE-[2-(4-pentenyl) alanine]-AQKLLKKFS-NH2 (Ac-KQ[2‑(7-octenyl)alanine]IENGSE[2‑(4-pentenyl)alanine]AQKLLKKFS-NH2; staple 3-10; listed as Homo sapiens) [SEQ ID NO: 59],negative CD signal between 200 nm and 230 nm,[1]; presence of 10 mM DPC,approximately −50 Δε
Ac-KQF C(S-)EN C(S-)SE FAQ KLL KKF S-NH2 (Ac-KQFCENCSEFAQKLLKKFS-NH2; disulfide 4-7; SMILES CC(=O)N[C@@H](CCCCN)C(=O)N[C@@H](CCC(N)=O)C(=O)N[C@@H](Cc1ccccc1)C(=O)N[C@H]1CSSC[C@@H](C(=O)N[C@@H](CO)C(=O)N[C@@H](CCC(=O)O)C(=O)N[C@@H](Cc2ccccc2)C(=O)N[C@@H](C)C(=O)N[C@@H](CCC(N)=O)C(=O)N[C@@H](CCCCN)C(=O)N[C@@H](CC(C)C)C(=O)N[C@@H](CC(C)C)C(=O)N[C@@H](CCCCN)C(=O)N[C@@H](CCCCN)C(=O)N[C@@H](Cc2ccccc2)C(=O)N[C@@H](CO)C(N)=O)NC(=O)[C@H](CC(N)=O)NC(=O)[C@H](CCC(=O)O)NC1=O; listed as Homo sapiens) [SEQ ID NO: 72],helicity (CD spectra),[2],significant helicity
same,negative CD signal between 200 nm and 230 nm,[2],−20 to −30 Δε
Ac-KQF IEN C(S-)SE C(S-)AQ KLL KKF S-NH2 (Ac-KQFIENCSECAQKLLKKFS-NH2; bridge 7-10; not fully specified (bridges); printed as Ac-KQF IEN C(S-)SE C(S-)AQ KLL KKF S-NH2; listed as Homo sapiens) [SEQ ID NO: 70],helicity (CD spectra),[2],significant helicity
Ac-KQF IEN GSE FAQ KC(S-)L KC(S-)F S-NH2 (Ac-KQFIENGSEFAQKCLKCFS-NH2; disulfide 14-17; SMILES CC[C@H](C)[C@H](NC(=O)[C@H](Cc1ccccc1)NC(=O)[C@H](CCC(N)=O)NC(=O)[C@H](CCCCN)NC(C)=O)C(=O)N[C@@H](CCC(=O)O)C(=O)N[C@@H](CC(N)=O)C(=O)NCC(=O)N[C@@H](CO)C(=O)N[C@@H](CCC(=O)O)C(=O)N[C@@H](Cc1ccccc1)C(=O)N[C@@H](C)C(=O)N[C@@H](CCC(N)=O)C(=O)N[C@@H](CCCCN)C(=O)N[C@H]1CSSC[C@@H](C(=O)N[C@@H](Cc2ccccc2)C(=O)N[C@@H](CO)C(N)=O)NC(=O)[C@H](CCCCN)NC(=O)[C@H](CC(C)C)NC1=O; listed as Homo sapiens) [SEQ ID NO: 69],helicity (CD spectra),[2],significant helicity
same,negative CD signal between 200 nm and 230 nm,[2],−5 to −10 Δε
Ac-KQFIENGSEFAQKLLKKFS-NH2 (listed as Homo sapiens) [Lacripep],helicity (CD spectra),[1]; absence of 10 mM DPC,little helicity
same,helicity (CD spectra),[2],significant helicity
"Ac-KQFIENGSEFAQKLLKKFS-NH2 [modified acetate salt form] (also: acetate salt) [Lacripep with N-terminal acetylation and C-terminal amidation, acetate salt]",alpha helicity,[3],29%
same,alpha helicity,[4],28%
Ac-KQFIENGSEFAQKLLKKFS-NH2 [modified dpC form] (also: dpC form) [terminally modified Lacripep constrained with 10 mM dodecylphosphocholine],alpha helicity,[4],100%
same,irregular,[4],0%
"KQFIENGSEFAQKLLKKFS [unmodified acetate salt form] (not fully specified (N-terminus, C-terminus); also: acetate salt) [Lacripep without N-terminal acetylation and C-terminal amidation, acetate salt]",alpha helicity,[3],28%
same,alpha helicity,[4],27%
"KQFIENGSEFAQKLLKKFS [unmodified dpC form] (not fully specified (N-terminus, C-terminus)) [unmodified Lacripep constrained with 10 mM dodecylphosphocholine]",alpha helicity,[4],92%
same,irregular,[4],8%
